# T1: human BCMA with a His tag (ACROBiosystems, Catalog No.: BCA-H522y) (human)
# T1 construct: Bought His-tagged recombinant protein; also called huBCMA-His; Recombinant human BCMA
# T1 chain: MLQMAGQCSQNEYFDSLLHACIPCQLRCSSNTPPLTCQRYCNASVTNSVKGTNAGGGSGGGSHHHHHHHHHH
# T2: BCMA on cells (293T cells transfected with BCMA; H929, MM.1S and U266 cell lines expressing BCMA) (human, UniProt Q02223 1-184)
# T2 construct: H929, MM.1S and U266 carry the native protein; also called B-cell Maturation Antigen; TNFRSF17
# T2 sequence: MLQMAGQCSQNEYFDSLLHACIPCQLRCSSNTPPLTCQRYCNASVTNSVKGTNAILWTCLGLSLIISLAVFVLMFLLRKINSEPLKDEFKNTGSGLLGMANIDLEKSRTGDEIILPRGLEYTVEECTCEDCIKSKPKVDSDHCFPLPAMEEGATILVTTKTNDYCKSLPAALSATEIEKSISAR
# T3: mouse BCMA with a His tag (ACROBiosystems, Catalog No.: BCA-M52H3) (mouse)
# T3 construct: Bought His-tagged recombinant protein
# T3 chain: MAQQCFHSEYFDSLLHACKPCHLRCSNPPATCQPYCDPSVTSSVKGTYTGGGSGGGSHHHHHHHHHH
# B1: SCT-Aa01(h/h) (antibody, V domains shown)
# VH: DVQLQESGPGLVKPSQSLSLTCSVTGYSITSGYYWNWIRQFPGNKLEWMGYIRYDGSNNYNPSLKNRISITRDTSKNQFFLKLNSVTTEDTATYYCAPYDYDYAMDFWGQGTSVTVSS
# VL: DIQMTQSPASLSASVGETVTITCRASGNIHNYLAWYQQKQGKSPQLLVYNAKTLAHGVPSRFSGSGSGTQYSLKITSLQPEDFGTYYCQHFWSTPFTFGSGTKLEIK
# notes: Full IgG format, chimeric: human IgG1 heavy chain constant region, human kappa light chain constant region
# B2: SCT-Aa08(h/h) (antibody, V domains shown)
# VH: QVQLQQSDAELVKPGASVKISCKVSGYTFIDHTIHWMKQRPEQGLEWIGYIYPRIDSSKCNEKFKDKATLTADKSSNTAYIQLNSLTSEDSAVYFCARWDYEGFDYWGQGTTLTVSS
# VL: DIVMTQSPATLSVTPGDRVSLSCRASQSISDYLHWYQQKSHESPRLLIKYASQSISGIPSRFSGSGSGSDFTLSINSVEPEDVGVYYCQNGHSFPPTFGSGTKLEIK
# notes: as for B1
# B3: SCT-Aa19(h/h) (antibody, V domains shown)
# VH: QVQLQQSGPELVKPGASVRISCKASGCTFTDYYIHWVKQRPGQGLEWIGWIYPGNLNSKFNEKFRDKATLTADNSSSTAYMQLSSLTSEDSAVYFCARYNYEGYFDYWGQGTTLTVSS
# VL: DIVMTQSPATLSVTPGDRVSLSCRASQSIADSLHWYQQKSHESPRLLIKYASHSISGIPSRFRGSGSGSDFTLSINSVEPEDVGVYYCQNGHSFPLTFGAGTKLELK
# notes: as for B1
# B4: SCT-Aa14(m/m) (antibody, V domains shown)
# VH: QVQLQQSDAELVKPGASVKISCKVSSYTFTDHTIHWMKQRPEQGLEWIGYIFPRDGSTKYNEKFKGKATLTADKSSSTAYMQLNSLTSEDSAVYFCARWDYEGFDYWGQGTTLTVSS
# VL: DIVMTQSPATLSVTPGDRVSLSCRASQNISDYLHWYQQKSHESPRLLIKYASQSISGIPSRFSGSGSGSDFTLSINSVEPEDVGVYYCQNGHSFPPTFGSGTKLEIK
# notes: Full IgG format: mouse IgG1 heavy chain constant region, mouse kappa light chain constant region
# B5: SCT-Aa11(m/m) (antibody, V domains shown)
# VH: QVQLQQSDAELVKPGASVKISCKVSGYTFTDHTIHWMKQRPEQGLEWIGYIFPRDGTTKFNEMFKGKATLTADKSSSTAYMELNSLTSEDSAVYFCARWDYEGFDYWGQGTTLTVSS
# VL: DIVMTQSPATLSVTPGDRVSLSCRASQSISDYLHWYQQKSHESPRLLIKYASQFISGIPSRFRGSGSGSDFTLSINSVEPEDVGVYYCQNGHSFPPTFGSGTKLEIK
# notes: as for B4
# B6: SCT-Aa11(h/h) (antibody, V domains shown)
# VH: QVQLQQSDAELVKPGASVKISCKVSGYTFTDHTIHWMKQRPEQGLEWIGYIFPRDGTTKFNEMFKGKATLTADKSSSTAYMELNSLTSEDSAVYFCARWDYEGFDYWGQGTTLTVSS
# VL: DIVMTQSPATLSVTPGDRVSLSCRASQSISDYLHWYQQKSHESPRLLIKYASQFISGIPSRFRGSGSGSDFTLSINSVEPEDVGVYYCQNGHSFPPTFGSGTKLEIK
# notes: as for B1
# B7: SCT-Aa10(h/h) (antibody, V domains shown)
# VH: QVQLQQSDAELVKPGASVKISCKVSGYTFTDHTIHWMKQRPEQGLEWIGYIFPRDGNTKYNEKFKGKATMTADKSSSTAYMQLNSLTSEDSAVYFCARWDYEGFDCWGQGTTLTVSS
# VL: DIVMTQSPATLSVTPGDRVSLSCRASQSISDYLHWYQQKSHESPRLLIKYASQSISGIPSRFSGSGSGSDFTLSINSVEPEDVGVYFCQNGHSFPPTFGSGTKLEIK
# notes: as for B1
# B8: SCT-Aa15(h/h) (antibody, V domains shown)
# VH: QVQLQQSDAELVKPGPSVKISCKVSGSTFTDHTVHWMKQRPEQGLEWIGYVYPRDGSTRYNEKFKGKATLTADKSSSTAYMQLNSLTSEDSAVYFCARWDYEGFDYWGQGTTLTVSS
# VL: DIVMTQSPATLSVTPGDRVSLSCRASQNISDYLHWYQQKSHESPRLLIKYASQSISGIPSRFSGSGSGSDFTLSINSVEPEDVGVYYCQNGHSFPPTFGSGTKLKIK
# notes: as for B1
# B9: SCT-Aa10(m/m) (antibody, V domains shown)
# VH: QVQLQQSDAELVKPGASVKISCKVSGYTFTDHTIHWMKQRPEQGLEWIGYIFPRDGNTKYNEKFKGKATMTADKSSSTAYMQLNSLTSEDSAVYFCARWDYEGFDCWGQGTTLTVSS
# VL: DIVMTQSPATLSVTPGDRVSLSCRASQSISDYLHWYQQKSHESPRLLIKYASQSISGIPSRFSGSGSGSDFTLSINSVEPEDVGVYFCQNGHSFPPTFGSGTKLEIK
# notes: as for B4
# B10: SCT-Aa08(m/m) (antibody, V domains shown)
# VH: QVQLQQSDAELVKPGASVKISCKVSGYTFIDHTIHWMKQRPEQGLEWIGYIYPRIDSSKCNEKFKDKATLTADKSSNTAYIQLNSLTSEDSAVYFCARWDYEGFDYWGQGTTLTVSS
# VL: DIVMTQSPATLSVTPGDRVSLSCRASQSISDYLHWYQQKSHESPRLLIKYASQSISGIPSRFSGSGSGSDFTLSINSVEPEDVGVYYCQNGHSFPPTFGSGTKLEIK
# notes: as for B4
# B11: SCT-Aa06(m/m) (antibody, V domains shown)
# VH: EVQLQQSGPELVKPGNSVKISCKASGYSFTGYFMNWVMQSHGKSLEWIGRINPYNGDTFYNQKFKGKATLTVDKSSSTAHMELRSLTSEDSAVYYCARLDYTNYNSYPMDYWGQGTSVTVSS
# VL: DIQMTHTTSSLSASLGDRVTISCSASQGISNYLNWYLQKPDGTVKLLIYYTSNLHSGVPSRFSGSGSGTDFSLTISNLQPEDIATYYCQQYSKFPWTFGGGTKLEIK
# notes: as for B4
# Legend:
# [1] = target: T1, human BCMA with a His tag …; experiment: ELISA, plate-coated human BCMA-His
# Experimental: (§1) The recombinantly expressed antibodies were used to assess binding activity to BCMA of different species origins by conventional ELISA according to the known art. Recombinant human BCMA, cyno BCMA, and mouse BCMA were coated onto ELISA plates to detect binding at serially diluted concentrations of the anti-BCMA antibody preparations.
# (§2) The ability for antibodies of the present disclosure to bind human BCMA was measured with an ELISA assay. For the BCMA binding assay, a 96-well plate (Nunc) is coated with human BCMA with a His tag (ACROBiosystems, Catalog No.: AC108P1-180611F2-Bulk, SEQ ID NO:2) at 0.2 μg/well overnight at 4° C. Wells are blocked for 2 h with blocking buffer (PBS containing 3% bovine serum albumin). Wells are washed three times with PBS containing 0.1% Tween-20. Anti-human BCMA antibodies of the present disclosure or control IgG (100 μL) is then added and incubated at room temperature for 1 h. After washing, the plate is incubated with 100 μL of goat anti-mouse IgG Fcγ Fragment Specific-HRP conjugate (Jackson ImmunoResearch) at room temperature for 1 h. The plates are washed and then incubated with 100 μL of 3,3′,5,5′-tetra-methylbenzidine. The absorbance at 450 nm is read on a microplate reader. The half maximal effective concentration (EC50) is calculated using GraphPad Prism 6 software.
# In experiments performed essentially as described above, anti-human BCMA antibodies of the present disclosure bind human BCMA with a His tag (ACROBiosystems, Beijing, China, Catalog No.: BCA-H522y, SEQ ID NO:2) with an EC50 values shown in Table 3.
# [2] = target: T1, human BCMA with a His tag …; experiment: SPR, Biacore T200
# Experimental: The binding affinity of select anti-BCMA was measured on a surface plasmon resonance (SPR) instrument, Biacore T200™, against human BCMA by a method known in the art.
# In experiments performed essentially as described above, a subset of anti-human BCMA antibodies of the present disclosure bind human BCMA with a His tag (ACROBiosystems, Beijing, China, Catalog No.: BCA-H522y, SEQ ID NO:2) with affinity shown in Table 6.
# [3] = target: T2, BCMA on cells (293T cells transfected …); experiment: flow cytometry, H929 cells
# [4] = target: T2, BCMA on cells (293T cells transfected …); experiment: flow cytometry, H929 cells; remark: listed apart in the source
# Experimental: A cell line expressing BCMA, H929, was used to assess binding by anti-BCMA antibodies on the native protein on the cell surface by flow cytometry according to the known art. A subset of anti-human BCMA antibodies were assayed for binding to H929 and the fraction of cells bound the labeled antibody above background defined by control is shown in Table 8.
# [5] = target: T2, BCMA on cells (293T cells transfected …); experiment: flow cytometry, 293T cells transfected with BCMA, above parental 293T background
# [6] = target: T3, mouse BCMA with a His tag …; experiment: ELISA, plate-coated mouse BCMA-His
# Experimental: as §1, §2
# In experiments performed essentially as described above, anti-human BCMA antibodies of the present disclosure bind mouse BCMA with a His tag (ACROBiosystems, Beijing, China, Catalog No.: BCA-M52H3, SEQ ID NO:109) with an EC50 values shown in Table 5.
binder,measurement,setting,value
B1,EC50,[1],3.38 ng/mL
same,Kd,[2],43.4 nM
same,koff,[2],0.0355 s⁻¹
same,kon,[2],819000 M⁻¹ s⁻¹
same,Mean fluorescent intensity,[3],411
same,Positive (%),[4],55.2%
same,Positive (%),[5],12.3%
B2,EC50,[1],3.74 ng/mL
same,Kd,[2],17.6 nM
same,koff,[2],0.0592 s⁻¹
same,kon,[2],3.36e+06 M⁻¹ s⁻¹
same,Mean fluorescent intensity,[3],454
same,EC50,[6],377 ng/mL
same,Positive (%),[4],92.5%
same,Positive (%),[5],57.5%
B3,EC50,[1],3.38 ng/mL
same,Kd,[2],1.19 nM
same,koff,[2],0.0062 s⁻¹
same,kon,[2],5.21e+06 M⁻¹ s⁻¹
same,Mean fluorescent intensity,[3],351
same,Positive (%),[4],85.1%
same,Positive (%),[5],51%
B4,EC50,[1],2.52 ng/mL
same,Kd,[2],20.4 nM
same,koff,[2],0.0376 s⁻¹
same,kon,[2],1.85e+06 M⁻¹ s⁻¹
same,Mean fluorescent intensity,[3],475
same,EC50,[6],2340 ng/mL
same,Positive (%),[4],75.1%
same,Positive (%),[5],52.2%
B5,EC50,[1],2.38 ng/mL
same,Kd,[2],42 nM
same,koff,[2],0.0945 s⁻¹
same,kon,[2],2.25e+06 M⁻¹ s⁻¹
same,Mean fluorescent intensity,[3],1520
same,Positive (%),[4],99.9%
same,Positive (%),[5],34.6%
B6,EC50,[1],3.85 ng/mL
same,Kd,[2],47.1 nM
same,koff,[2],0.113 s⁻¹
same,kon,[2],2.4e+06 M⁻¹ s⁻¹
same,Mean fluorescent intensity,[3],179
same,Positive (%),[4],53.7%
same,Positive (%),[5],34.9%
B7,EC50,[1],2.86 ng/mL
same,Kd,[2],9.17 nM
same,koff,[2],0.0284 s⁻¹
same,kon,[2],3.1e+06 M⁻¹ s⁻¹
same,Mean fluorescent intensity,[3],495
same,EC50,[6],941 ng/mL
same,Positive (%),[4],85.5%
same,Positive (%),[5],57.9%
B8,EC50,[1],3.71 ng/mL
same,Kd,[2],1.19 nM
same,koff,[2],0.0062 s⁻¹
same,kon,[2],5.21e+06 M⁻¹ s⁻¹
same,Mean fluorescent intensity,[3],141
same,EC50,[6],226 ng/mL
same,Positive (%),[4],34.8%
same,Positive (%),[5],32%
B9,EC50,[1],2.57 ng/mL
same,Kd,[2],9.56 nM
same,koff,[2],0.0224 s⁻¹
same,kon,[2],2.34e+06 M⁻¹ s⁻¹
same,Mean fluorescent intensity,[3],2960
same,EC50,[6],8030 ng/mL
same,Positive (%),[4],99.9%
same,Positive (%),[5],82.9%
B10,EC50,[1],2.46 ng/mL
same,Kd,[2],15.7 nM
same,koff,[2],0.0527 s⁻¹
same,kon,[2],3.36e+06 M⁻¹ s⁻¹
same,Mean fluorescent intensity,[3],1820
same,EC50,[6],682 ng/mL
same,Positive (%),[4],99.9%
same,Positive (%),[5],70.6%
B11,EC50,[1],2.34 ng/mL
same,Kd,[2],5.16 nM
same,koff,[2],0.0163 s⁻¹
same,kon,[2],3.15e+06 M⁻¹ s⁻¹
same,Mean fluorescent intensity,[3],4300
same,Positive (%),[4],99.9%
same,Positive (%),[5],91.6%
